From the supplement of paper PMC10567573

B1: MGC16075 (parent)
chain: AGSRQALSFEVPPCNYDPEKWIQ
B2: EHMT1 (parent)
chain: FHKDCASRVNNASYCPHCGEESSK

Variants of: B1
Assay: protein stability index of a GFP-peptide fusion (GPS, HEK-293T) (PSI 1-6); higher = more stable
Details: c terminus: native
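Note: lentivirally expressed fusions sorted by FACS into six bins by GFP to DsRed ratio, PSI derived from sequencing read proportions per bin multiplied by bin number.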

Protein stability index of substitutions, site by site:
W21: P 5.2; K 3.53; Q 2.83; R 2.16; N 2.42; M 3.23; V 2.88; L 2.17
Q23: D 1.34; M 1.82; F 2.23; N 2.83; P 4.37; E 1.97; G 3.04; V 4.81; I 2.43; K 1.91; H 2.55; W 1.24; Y 2
I22: T 4.85; D 4.97; K 4.72; A 4.22; Y 2.85; Q 4.78; N 4.99; S 5.03; G 5.11; H 4.62; F 4.43; W 3.22; E 4.4; L 3.92; V 2.75; M 4.14; C 4.56; P 4.72

Variants of: B2
Assay: as above
Details: c terminus: a fixed tail appended

Protein stability index: each site, then its substitutions
G19: E 4.05; S 3.48; A 3.93; L 3.67; P 3.75; F 3; I 3.87
H2: S 3.1; C 5.31; A 2.61; M 3.45; Q 3.1
C15: K 3.68; T 3.59; G 3.82; S 3.55; Q 3.67
N11: I 2.22; Q 3.47; P 3.25; M 3.36; T 3.21; R 3.47; S 3.08
E20: M 3.15; C 3.55; I 2.95; Y 3.46; L 2.78; Q 3.14; K 3.68
K24: V 3.47; R 2.5; W 3.05; I 3.27; S 3.48; E 3.11; Q 3.49; P 3.22
P16: C 3.11; H 3.15; D 3.52; G 3.24
Y14: H 3.47; A 3.31; V 3.44; K 3.59; R 3.52; N 3.75; G 3.38
A6: L 2.85; K 3.53
K3: V 2.92; T 2.45; E 3.83; P 2.22
A12: V 3; R 3.33; M 3.24; P 3.25; D 4.27
C5: E 2.82; I 2.42; L 2.4; K 2.13
V9: A 3.47; W 2.31; S 3.79
S7: H 4.18; Y 2.12; Q 3.23; G 3.47; P 2.87; L 3.44
H17: K 3.43; P 2.87; W 2.16; E 3.47; A 3.68
N10: T 3.03; L 3.31; E 3.69; V 2.92; Q 3.52; H 3.94; D 3.9
S22: W 2.54; N 3.93; Y 3.36; P 3.03; C 3.59
E21: C 3.07; W 2.8; I 2.83
C18: V 3.75; E 4.36; H 3.62
F1: R 4.59; D 4.77; C 5.43; G 5.15; A 4.71; Y 3.85
D4: M 1.83; R 2.3; L 2; H 2.84; F 2.04
S23: A 3.63; C 4.21; P 3.15; K 3.16; R 3.21; V 3.41; W 2.69
R8: N 3.94; G 3.97; L 3.39; T 3.1; V 3.34; I 3.94
S13: M 3.13; L 2.62; K 3.46; C 2.37; Q 3.8; I 2.17; G 3.97
